According to patent US20060024313:

Target: P27487

Protein | specific activity after serial dilution (H-Gly-Pro-pNA hydrolysis)
endogenous DPP-IV purified from human semen (sDPP-IV) (protein) SRKTYTLTDYLKNTYRLKLYSLRWISDHEYLYKQENNILVFNAEYGNSSVFLENSTFDEFGHSINDYSISPDGQFILLEYNYVKQWRHSYTASYDIYDLNKRQLITEERIPNNTQWVTWSPVGHKLAYVWNNDIYVKIEPNLPSYRITWTGKEDIIYNGITDWVYEEEVFSAYSALWWSPNGTFLAYAQFNDTEVPLIEYSFYSDESLQYPKTVRVPYPKAGAVNPTVKFFVVNTDSLSSVTNATSIQITAPASMLIGDHYLCDVTWATQERISLQWLRRIQNYSVMDICDYDESSGRWNCLVARQHIEMSTTGWVGRFRPSEPHFTLDGNSFYKIISNEEGYRHICYFQIDKKDCTFITKGTWEVIGIEALTSDYLYYISNEYKGMPGGRNLYKIQLSDYTKVTCLSCELNPERCQYYSVSFSKEAKYYQLRCSGPGLPLYTLHSSVNDKGLRVLEDNSALDKMLQNVQMPSKKLDFIILNETKFWYQMILPPHFDKSKKYPLLLDVYAGPCSQKADTVFRLNWATYLASTENIIVASFDGRGSGYQGDKIMHAINRRLGTFEVEDQIEAARQFSKMGFVDNKRIAIWGWSYGGYVTSMVLGSGSGVFKCGIAVAPVSRWEYYDSVYTERYMGLPTPEDNLDHYRNSTVMSRAENFKQVEYLLIHGTADDNVHFQQSAQISKALVDVGVDFQAMWYTDEDHGIASSTAHQHIYTHMSHFIKQCFSLP | no decrease in specific activity were observed for either sDPP-IV or rDPP-IV even at a concentration as low as 1.6 nM
recombinant wild-type human DPP-IV (rDPP-IV), amino acids 39 to 766, secreted from baculovirus-infected Hi5 insect cells (protein) SRKTYTLTDYLKNTYRLKLYSLRWISDHEYLYKQENNILVFNAEYGNSSVFLENSTFDEFGHSINDYSISPDGQFILLEYNYVKQWRHSYTASYDIYDLNKRQLITEERIPNNTQWVTWSPVGHKLAYVWNNDIYVKIEPNLPSYRITWTGKEDIIYNGITDWVYEEEVFSAYSALWWSPNGTFLAYAQFNDTEVPLIEYSFYSDESLQYPKTVRVPYPKAGAVNPTVKFFVVNTDSLSSVTNATSIQITAPASMLIGDHYLCDVTWATQERISLQWLRRIQNYSVMDICDYDESSGRWNCLVARQHIEMSTTGWVGRFRPSEPHFTLDGNSFYKIISNEEGYRHICYFQIDKKDCTFITKGTWEVIGIEALTSDYLYYISNEYKGMPGGRNLYKIQLSDYTKVTCLSCELNPERCQYYSVSFSKEAKYYQLRCSGPGLPLYTLHSSVNDKGLRVLEDNSALDKMLQNVQMPSKKLDFIILNETKFWYQMILPPHFDKSKKYPLLLDVYAGPCSQKADTVFRLNWATYLASTENIIVASFDGRGSGYQGDKIMHAINRRLGTFEVEDQIEAARQFSKMGFVDNKRIAIWGWSYGGYVTSMVLGSGSGVFKCGIAVAPVSRWEYYDSVYTERYMGLPTPEDNLDHYRNSTVMSRAENFKQVEYLLIHGTADDNVHFQQSAQISKALVDVGVDFQAMWYTDEDHGIASSTAHQHIYTHMSHFIKQCFSLP | no decrease in specific activity were observed for either sDPP-IV or rDPP-IV even at a concentration as low as 1.6 nM
DPP-IV H750A mutant (protein) SRKTYTLTDYLKNTYRLKLYSLRWISDHEYLYKQENNILVFNAEYGNSSVFLENSTFDEFGHSINDYSISPDGQFILLEYNYVKQWRHSYTASYDIYDLNKRQLITEERIPNNTQWVTWSPVGHKLAYVWNNDIYVKIEPNLPSYRITWTGKEDIIYNGITDWVYEEEVFSAYSALWWSPNGTFLAYAQFNDTEVPLIEYSFYSDESLQYPKTVRVPYPKAGAVNPTVKFFVVNTDSLSSVTNATSIQITAPASMLIGDHYLCDVTWATQERISLQWLRRIQNYSVMDICDYDESSGRWNCLVARQHIEMSTTGWVGRFRPSEPHFTLDGNSFYKIISNEEGYRHICYFQIDKKDCTFITKGTWEVIGIEALTSDYLYYISNEYKGMPGGRNLYKIQLSDYTKVTCLSCELNPERCQYYSVSFSKEAKYYQLRCSGPGLPLYTLHSSVNDKGLRVLEDNSALDKMLQNVQMPSKKLDFIILNETKFWYQMILPPHFDKSKKYPLLLDVYAGPCSQKADTVFRLNWATYLASTENIIVASFDGRGSGYQGDKIMHAINRRLGTFEVEDQIEAARQFSKMGFVDNKRIAIWGWSYGGYVTSMVLGSGSGVFKCGIAVAPVSRWEYYDSVYTERYMGLPTPEDNLDHYRNSTVMSRAENFKQVEYLLIHGTADDNVHFQQSAQISKALVDVGVDFQAMWYTDEDHGIASSTAHQAIYTHMSHFIKQCFSLP | the specific activity of H750A protein was also constant over the range of 200 nM to 1.6 nM
